Assay: yeast display, Sf9 membrane polyspecificity reagent, FACS + sequencing; frameworks hold sequencing errors
Summary of the method: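 Galactose-induced (36–48 hours) yeast carrying a synthetic nanobody display library were exposed to 10% biotinylated, detergent-solubilized Sf9 membrane reagent at 4 °C for 1 hour. FACS followed streptavidin microbead enrichment, using low and high (top ~1%) gates for expression (anti-HA) and reagent binding (streptavidin). Colony PCR, MiSeq 2 × 250 sequencing and CDR-length filtering followed. Labels for polyreactivity reflect the gate of origin.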

Row | Sequence | polyreactivity (PSR sort gate)
1 | QVQLVESGGGLVQAGGSLRLSCAASGSTFRLYAMGCYRPAPGKERELVAVISRSGGRTYADSVKGRFTISRDNAKNTVYLQMNSLKPEDTAVYYCAKARHKSPTYTHDSWGQGTQVTVSS | high polyreactivity
2 | QVQLVESGGGLVQAGGSLRLSCAASGSIFRGYAMGWYRQAPGKERELVAVITKSGGRTYYADSVKGRFTISRDNAKNTVYLQMNRLKPEDTAVYYCAKQPGSAYDYWGQGTQVTVSS | high polyreactivity
3 | QVQLVESGGGLVQAGGSLRLSCAASGFTFYSYALGWYIQAPGKERELVAAISRGGSTTYADSVKGRFTISRDNAKNTVYLQMNSLKPEDTAVYYCAARYRYRYTPYRYDYWGQGTQVTVSS | high polyreactivity
4 | QVQHVESGGGLVQAGGSHRLSSAASGSTFRGYVMGWYRQAPGKERELVAVITTSDGDTYYADSVKGRFTNSRDNAKNTVYLQMNSLKPEDTAVYYCNADLYSYYGDNYWGQGTQVTVSS | low polyreactivity
5 | QVQLVESGGGLVQAGGSLRLSCAASGRIFSRYAMGWYRQAPGKERELVATISSSRGGTSTNYADSVKGRFTISRDNAKNTVYLQMNSLKPEDTAVYYCNALYGRQIVDYDYWGQGTQVTVSS | low polyreactivity
6 | QVQLVESRGGIVQAGGSLRLSCAASGRIFGWYAMGWYRQAPGKERELVAAITSSVGRTYYADSVKGRFTISRDNAKNTVYLQMNSLKPEDTAVYYCAKDLYTYYYFEYDYWGQGTQVTVSS | low polyreactivity
7 | QVQLVESGGGLVQAGGSLRLSCAASGSIFYKYGMGWYRQAPGKVRVLVAAIRASGDSTYYADSVKGRFTISRDNAKNTVYLQMNSQKPEDTAVYYCAARPNQSYYGLYYYWGQGTQVTVSS | low polyreactivity
8 | QVQLVESGGGLVQAGASLRLSCAASGFIFRHYAMGWYRQAPGKARELVAVINWSGSSTYYADSVKGRFTISRDNAKNTVYLQMNSLKPEDTAVYYCAVRSLRVDKYGYWGQGTQVTVSS | high polyreactivity
9 | QVQLVESGGGLVQAGGSLRLSCAASGSIFDYNTMGWYRQAPGKERELVAAISSGGSTYYADSVKGRFTISRDNAKNTVYLQMNSLKPEDTAVYYCAARRAGWWGFYYWGQGTQVTVSS | high polyreactivity
10 | QVQLVESGGGLVQAGGSLRLSCAASGRIIYTNAMGWYRQAPGKERELVAAINRSGGITYYADSVKGRFTISRDNAKNTVYLQMNSLKPEDTAVYYCAKDYSWASYNHDYWGQGTQVTVSS | low polyreactivity
11 | QVQLVESGGGLVQAGGSLRLSCAASGSIFEPYVMGWYRQAPGKERELVAAIRQTGGSTYYADSVKGRFTISRDNAKNTVYLQMNSLKPEDTAVYYCNAEQNPSGLYDYRGVEGEMGYWGQGTQVTVSS | low polyreactivity
12 | QVQLQESGGGLVQAGRSQRLSCAASGYIFYFQYMGWYRQAPGKEREFVAAISDGANTNYADSVKGRFTISRDNAKNSEYLQMNSLKPEDTAVYYCAVYADENYYYIYWGQGTQVTVSS | low polyreactivity
13 | QVQLVESGGGLVQAGGSLRLSCAASGRIFLIYAMGWYRQAPGKERELVAAISWSGGSTYYADSVKGRFTISRDNAKNTVYLQMNSLKPEDTAVYYCNADDVNYGYYSWYDYWGQGTQVTVSS | low polyreactivity
14 | QVQLVESGGGLVQAGGSLRLSCAASGINYTFYAMGWYRQAPGKERELVAAISYSSGSTYADSVKGRFTISRDNAKNTVYLQMNSLKPEDTAVYYCAVDLFPGHSYTYDYWGQGTQVTVSS | low polyreactivity
15 | QVQLVESAGGLVQAGGSLSLSCAASGRTFIRHAMGRDRQAPGKERELVAAINSGGITNYADSVKGRFTISRVNAKNTVFLKRNSLKPEDTAVYYCAAYKPWYVGLYPWYDYWGQGTQVTVSW | low polyreactivity
16 | QVQLVESGGGLVQSGGILRLSCAATGSIFTSDAMGWYRLAPGKEMELVAAITFSGGDTYYADSVKGRFTISRDNAKNTVYLQMNSLNPEDTAVYYCNADPQQVGAYEYWGQGTQVTLSS | low polyreactivity
17 | QVQLVESGGGLVQAGGSLRLSCAASGFTFRTNLMVWYRQAPGKERELVAVITRDGGSTYYADSVKGRFTISRDHAKNTVYLQINSLKPEDTAVYYCNAAAFINFILYDYWGQGTQVTVSS | high polyreactivity
18 | QVQLVESGGGLVQAGGSLRLICAASGSTSPTNAMGWYRQAPGKEREFVAAIRGSGSSTRYADSVKGRFTISRDNAKNTVYLQMNSLKPEDTAVYYFDYWGQGTQVTVSS | low polyreactivity
19 | QVQLVESGGGLVQAGGSLRLSCAASGIIFTGYAMGWYRQAPGKERELVAAISDTGGSTYYADSVKGRFTISRDNAKNTVYLQMNSLKPEDTAVYYCAADWWSRYYYWGQGTQVTVSS | high polyreactivity
20 | QVQLVESGGGLVQARGSLRLSCAASGSIFINNTRGWYRQAPGIEREWVAAISITGGSTYYADSVKGRFTISRDNAKNSVYLQMNSLKPEDTAVDYCAADPLQLYDYNYWGQGTQVTVSS | low polyreactivity
21 | QVQLVESGGGLVQAGGSLRLSCAASGFTFRYYAMGWYRPAPGKERELVAAISWSGGSTYYADSVKGRFTISRDNAKNTVYLQMYTLIPEDTAVYDCNAAWPGYISNRLGYDYWGQGTQVTVSS | high polyreactivity
22 | QFQLVESGGGLVQAGGSLRLSGAASGRTFRIYAMGWYRQAPGKDRELVAAITRSSGSTYYADSVKGRFTISRDNAKNTVYLQMNSLKPEDTAVYYCAAEALFEPIYDYWGQGTQVTVSS | high polyreactivity

Row | Sequence | polyreactivity (PSR sort gate)
23 | QVQLVESGGGLVQAGGSLRLSCAASGLTFGGYTMGWYRQAPGKERELVAAITSGGSTYYADSVKGRFTISRDNAKNTVYLQMNSLKPEDTAVYYCAARVRGWPVSKFGYWGQGTQVTVSS | high polyreactivity
24 | QEQLQGSGGGLAQAGDSLRLSCAASGTIFSEYNNGLVSPGAGQRTRTCCRYWCWGNTYYADSAKGRFTTIRDNAKNTVYLQKNSLKPEDTAVYYCAFNRPYPSRHIYRGQGTQVTVSS | high polyreactivity
25 | QVQLVESGGGLVQAGGSLRLSCAASGFTFGENAMGWYRQAPGKDRELVAAITSGDGTSYADSVKGRFTISRDNAKNTVYLQMNSLKPEDTAVYSCAADVNYYQHRLYYWGLGTQVTVSS | low polyreactivity
26 | QVQLVESGGGLVQAGGSLRLSCAASGSTFGEYAMGWYRQAPGKERELVAGITSGGSTNYADSVKGRFTISRDNAKNTVYLQMNSLKPEDTAVYYCNARFYGSVDYWGLGTQVTVSS | low polyreactivity
27 | QVQLVESGGGIVQAGGSLRLSCAASGRTFFYYAMGWYRQAPGKERELVAAITTDGGTTYYADSVKGRFTISRDNAKNTVSLQMNSLKPEDTAGYYCAADASYQYYPYDYWGQGTQVTVSS | low polyreactivity
28 | QVHLVESGGGLVQAGGSLRLSCAASGRTLVPNAMGWYRQAPGKERELVAAISRSGGSTYYADSLKGRFTISRDNAKNTVYLQMNSLKPEDTAVYYCAKDKRIFYRVGSDYWGQGTQVTVSS | low polyreactivity
29 | QVQLVESGGGLVQAGGSLRLSCAAPGSIFGTNAMGWYRQAPGKERELVAAINWSGGTTYYADSVKGRFTISRDNAKNTVYLQMNSLKPEDTAVYYCATVFFVLPPTRFDSWGQGTQVTVSS | low polyreactivity
30 | QVQLVESGGGLVQAGGSLRLSCSASGSIFDRYTIGWYRQAPWKERDLVAAITFGGGSTYYADSVKVRFTISRDNAKNTDYLQRNSLKPADTAVYYCAKQRHGKLGHILGYNYWGQGTQVTVSS | low polyreactivity
31 | QVQLVESGGGLVQAGGSLRLSCAASGRIFRGYAMAWYRQAPGKERELVAAISGRGGRTNYADSVKGRFTISRDNAKNTVYLQMNSLKPEDTAVYYCATVPYTASRYEYWGQGTQVTVSS | high polyreactivity
32 | QVQLVESGGGLVQAGGSLRLSCAASGLTFYLYAMGWYRQAPGKERELVAAITTSGGSTYYADSVKGRFTISRDNAKNTVYLQMNSLKPEDTAVYDCATQGAIRGYGYWGQGTQVTVSS | high polyreactivity
33 | QVQLVESRGVLVQAGGSLRLSCAASGSIFYFYAMGWYRQAPGKERELVAAISWSGGSTYYADSVKGRFTISRDTSKNTVYLQMHSLKPEDTPVYYCNAADYWYWENDYWGQGTQVTVSS | low polyreactivity
34 | QVQLVESGARLVQAGGSLRLSCDASGITFFAYAIGWYRQAQGKERELVAAISCNTGRTYYADSVKGRFTISRDNAKITVYLQMNSLKPEDTAVYYCAKRGVGVGYNYWGQGTQVTVSS | high polyreactivity
35 | QVQLVESGGGLVQAGGSLRLSCAASGSIFYGNAMGWYRQAPGKERELVAAISKRGGSTYYADSVKGRFTISRDNAKNTVYLQMNSLKPEDTAVYYCAKATAGHTEYYSWGQGTQVTVSS | high polyreactivity
36 | QVQLVESGGGLVQAGGSLRLSCAASGRTFYPYAKGWYRQAPGKERELVAAIRWSGGSTYYADSVKGRFTISRDNAKNTVYLQMNSLKPEDTAVYYCNADWKSYRGPKFDYWGQGTQVTVSS | low polyreactivity
37 | QVQLVESGGGLVQAGGSLSLSCAASGFIFSYYVMGWYRQAPGKERELVAAINESGGRTYYADSVKGRFTISRDNAKNTVYLQMNSLNPEDTAVYYCAASVLNKIQGYRDYYWGQGTQVTVSS | low polyreactivity
38 | QVQLVESCGGLVQAGGSLRLSCAASGSIFADYAMGWYRQAPGKEREFVAAITRSGTSTYYADSVKGRFTISRDNAKNTVYLQMTSLKPVDTPVYYCAKTEVLLYLYTLDYWGQGTQVTVSS | low polyreactivity
39 | QVQLVESGGGLVQAGGSLRLSCAASGFIFTHNAMGWYRQAPGKERELVAAISRSGGRTYYADSVKGRFTISRDNAKNTVYLQMNSLKPEDTAVYYCAKDAYVYGMGYWGQGTQVTVSS | high polyreactivity
40 | QVQLVESGGGLVQAGGSLRLSCAASGRIFASYAMGWYRQAPGKERELVAAITRSGGRTYYADSVKGRFTISRDNAKNTVYLQMNSLKPADTAVDYCAVDTVTRTVLVYGDRNDSWGQGTQVTVSS | high polyreactivity
41 | QVQLVESGGGLVQAGGSLPLSCAASGITFHRYAMGWDRQAPGKERELVAAMSRGASTNYADSVKGRFTISRDNAKNTVYLQMNSLKPEDTAVYYCAARTIGWYSGSRFDYWGQCTQVTVSS | high polyreactivity
42 | QVQLVESGGGLVQAGGSLRISCAASGSIYWDNAMGWYRQAPGQESELVAAITSSGDTTYYADSVKGRFTISRDNAKNTVYLQMNSQKPEDTAVYYCAADYYTAYYVTLDYWGQGTQVTVSS | low polyreactivity
43 | QVQLVESGGGLVQAGGSLRLRCAAMGWYRQAPWKERELVAGITRDGNTYYADSVKGRFTISRDNAKNTVYLQMNSLKPEDTAVYYCAAKHPKKYSYWGQGTQVSVSS | low polyreactivity

Source: the nanobody polyreactivity screen of Harvey et al. (2022)
